Laboratory results: patent publication US20200231691A1 (Hoffmann-La Roche, published 2020)

How the values were obtained:
murine EpCAM = biological target: T1, murine EpCAM (murine, UniProt Q99JW5 24-315); assay: flow cytometry, muEpCAM+ CT26muEpCAM cells
T1 construct: Stably expressed on CT26muEpCAM cl25 cells; also called muEpCAM; CT26muEpCAM cells
T1 sequence: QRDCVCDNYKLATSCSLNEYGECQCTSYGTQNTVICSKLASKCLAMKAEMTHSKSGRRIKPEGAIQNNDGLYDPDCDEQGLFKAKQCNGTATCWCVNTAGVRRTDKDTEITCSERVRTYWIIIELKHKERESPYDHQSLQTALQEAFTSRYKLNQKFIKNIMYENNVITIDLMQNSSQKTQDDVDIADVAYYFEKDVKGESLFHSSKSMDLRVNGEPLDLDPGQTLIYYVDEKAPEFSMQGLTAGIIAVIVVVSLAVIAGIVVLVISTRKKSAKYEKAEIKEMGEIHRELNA
Description: (§1) The binding to cell surface murine EpCAM was analysed using mouse EpCAM-positive CT26muEpCAM c125 cells, which stably expresses murine EpCAM. The specificity of binding was analysed by determination of binding to muEpCAM-negative cell line CT26muFAP, which stably expresses murine FAP.
(§2) For analysis of binding of the antigen binding molecules, 0.5×10⁵ CT26muEpCAM or 0.5×10⁵ CT26muFAP cells were added to wells of round-bottomed suspension cell 96-well plates (greiner bio-one, cellstar, Cat. No. 650185). For discrimination of live and dead cells, samples were stained with Zombie Aqua Viability Dye (Biolegend, Cat. No 423102) in PBS for 10 minutes at room temperature. Cells were then washed once with FACS buffer and subsequently stained for 90 minutes at 4° C. in the dark in 50 μL/well 4° C.
(§3) Plates were finally resuspended in 85 μL/well FACS-buffer and acquired the same day using 4-laser LSR-II cytometer (BD Bioscience with DIVA software).

murine FAP = biological target: T2, murine FAP (murine, UniProt P97321 1-761); assay: flow cytometry on CT26muFAP cells, which stably express murine FAP
T2 construct: whole, on cells; CT26muFAP served as the muEpCAM-negative specificity control cell line; also called muFAP; CT26muFAP cells
T2 sequence (looked up): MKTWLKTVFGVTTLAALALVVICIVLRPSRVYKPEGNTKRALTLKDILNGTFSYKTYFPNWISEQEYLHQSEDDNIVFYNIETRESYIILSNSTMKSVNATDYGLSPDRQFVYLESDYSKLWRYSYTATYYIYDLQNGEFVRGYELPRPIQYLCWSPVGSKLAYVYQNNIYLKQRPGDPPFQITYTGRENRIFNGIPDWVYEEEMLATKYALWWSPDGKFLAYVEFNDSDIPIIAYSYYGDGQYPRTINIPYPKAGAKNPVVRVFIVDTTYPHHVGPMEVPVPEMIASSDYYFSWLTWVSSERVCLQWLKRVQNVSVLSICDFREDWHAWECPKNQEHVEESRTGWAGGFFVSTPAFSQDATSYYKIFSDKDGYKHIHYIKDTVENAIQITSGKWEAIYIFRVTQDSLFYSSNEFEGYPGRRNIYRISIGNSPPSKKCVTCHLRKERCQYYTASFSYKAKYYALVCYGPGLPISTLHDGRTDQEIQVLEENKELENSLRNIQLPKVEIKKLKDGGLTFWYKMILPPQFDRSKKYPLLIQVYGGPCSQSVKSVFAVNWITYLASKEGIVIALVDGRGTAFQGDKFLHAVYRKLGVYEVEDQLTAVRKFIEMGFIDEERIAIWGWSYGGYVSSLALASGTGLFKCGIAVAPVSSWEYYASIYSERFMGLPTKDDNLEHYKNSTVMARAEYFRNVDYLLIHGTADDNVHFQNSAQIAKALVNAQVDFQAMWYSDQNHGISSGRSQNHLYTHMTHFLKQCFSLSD
Description: as §1, §2, §3

human OX40 [1] = biological target: T3, human OX40 (human, UniProt P43489 29-277); assay: flow cytometry, activated human OX40+ CD4+ T cells
T3 construct: Recombinant on HeLa reporter cells in the NFkB assay; also called huOX40; CD134
T3 sequence: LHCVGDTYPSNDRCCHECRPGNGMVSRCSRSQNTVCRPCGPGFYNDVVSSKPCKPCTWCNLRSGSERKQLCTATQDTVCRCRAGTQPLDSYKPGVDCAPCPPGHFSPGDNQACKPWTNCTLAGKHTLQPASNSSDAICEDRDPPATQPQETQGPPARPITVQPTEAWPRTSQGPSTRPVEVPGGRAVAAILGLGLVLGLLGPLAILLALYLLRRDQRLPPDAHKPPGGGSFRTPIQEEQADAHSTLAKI
Description: (§4) For discrimination of live and dead cells, samples were stained with Zombie Aqua Viability Dye (Biolegend, Cat. No. 423102) in DPBS for 10 minutes at room temperature. […] After three washes with excess FACS buffer, cells were stained for 30 minutes at 4° C. in the dark in 25 μL/well 4° C. FACS buffer containing a mixture of fluorescently labeled anti-human CD4 (clone RPA-T4, mouse IgG1 k, BioLegend, Cat. No. 300532), anti-human CD8 (clone RPa-T8, mouse IgG1k, BioLegend, Cat.-No. 3010441) and Fluorescein isothiocyanate (FITC)-conjugated AffiniPure anti-human IgG Fcγ-fragment-specific goat IgG F(ab′)2 fragment (Jackson ImmunoResearch, Cat. No. 109 096 098).

human OX40 [2] = biological target: T3, human OX40; assay: flow cytometry, activated human OX40+ CD8+ T cells
Description: as §4

human EpCAM = biological target: T4, human EpCAM (human, UniProt P16422 24-314); assay: flow cytometry, huEpCAM+ KATO-III cells
T4 construct: Endogenous on KATO-III cells and stably expressed on NIH/3T3huEpCAM clone 44 cells; also called huEpCAM; KATO-III cells
T4 sequence: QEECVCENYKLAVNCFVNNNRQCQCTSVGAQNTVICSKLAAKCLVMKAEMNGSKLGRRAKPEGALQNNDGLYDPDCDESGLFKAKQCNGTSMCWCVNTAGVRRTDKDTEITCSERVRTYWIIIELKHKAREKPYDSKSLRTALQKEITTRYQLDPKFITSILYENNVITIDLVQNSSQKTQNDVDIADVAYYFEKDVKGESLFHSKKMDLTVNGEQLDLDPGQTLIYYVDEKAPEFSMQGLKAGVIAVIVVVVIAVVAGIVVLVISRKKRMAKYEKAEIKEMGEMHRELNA
Description: For discrimination of live and dead cells, samples were stained with Zombie Aqua Viability Dye (Biolegend, Cat. No 423102) in PBS for 10 minutes at room temperature. Cells were then washed once with FACS buffer and subsequently stained for 90 minutes at 4° C. in the dark in 50 μL/well 4° C.

B1: monospecific, bivalent anti-murine EpCAM IgG (parental bivalent anti-muEpCAM antibody) (antibody, V domains shown)
VH: EVQLAESGGGLVQPGRSMKLSCAASGFTFSNFPMAWVRQAPTKGLEWVATISTSGGSTYYRDSVKGRFTISRDNAKSTLYLQMNSLRSEDTATYYCTRTLYILRVFYFDYWGQGVMVTVSS
VL: DIQMTQSPASLSASLGETVSIECLASEGISNDLAWYQQKSGKSPQLLIYATSRLQDGVPSRFSGSGSGTRYSLKISGMQPEDEADYFCQQSYKYPWTFGGGTKLELK
notes: it was detected with anti-mouse IgG Fc; also called muEpCAM IgG; G8.8
Question: What does the source list for B1?
Answer: EC50 (murine EpCAM): 2.87 nM; binding result (murine FAP): no binding

B2: bispecific, tetravalent anti-human OX40, bivalent anti-human EpCAM 4+2 molecule (OX40 49B4/EpCAM 3-17I P329GLALA 4+2) (bispecific antibody, human IgG1, kappa, L234A L235A)
heavy: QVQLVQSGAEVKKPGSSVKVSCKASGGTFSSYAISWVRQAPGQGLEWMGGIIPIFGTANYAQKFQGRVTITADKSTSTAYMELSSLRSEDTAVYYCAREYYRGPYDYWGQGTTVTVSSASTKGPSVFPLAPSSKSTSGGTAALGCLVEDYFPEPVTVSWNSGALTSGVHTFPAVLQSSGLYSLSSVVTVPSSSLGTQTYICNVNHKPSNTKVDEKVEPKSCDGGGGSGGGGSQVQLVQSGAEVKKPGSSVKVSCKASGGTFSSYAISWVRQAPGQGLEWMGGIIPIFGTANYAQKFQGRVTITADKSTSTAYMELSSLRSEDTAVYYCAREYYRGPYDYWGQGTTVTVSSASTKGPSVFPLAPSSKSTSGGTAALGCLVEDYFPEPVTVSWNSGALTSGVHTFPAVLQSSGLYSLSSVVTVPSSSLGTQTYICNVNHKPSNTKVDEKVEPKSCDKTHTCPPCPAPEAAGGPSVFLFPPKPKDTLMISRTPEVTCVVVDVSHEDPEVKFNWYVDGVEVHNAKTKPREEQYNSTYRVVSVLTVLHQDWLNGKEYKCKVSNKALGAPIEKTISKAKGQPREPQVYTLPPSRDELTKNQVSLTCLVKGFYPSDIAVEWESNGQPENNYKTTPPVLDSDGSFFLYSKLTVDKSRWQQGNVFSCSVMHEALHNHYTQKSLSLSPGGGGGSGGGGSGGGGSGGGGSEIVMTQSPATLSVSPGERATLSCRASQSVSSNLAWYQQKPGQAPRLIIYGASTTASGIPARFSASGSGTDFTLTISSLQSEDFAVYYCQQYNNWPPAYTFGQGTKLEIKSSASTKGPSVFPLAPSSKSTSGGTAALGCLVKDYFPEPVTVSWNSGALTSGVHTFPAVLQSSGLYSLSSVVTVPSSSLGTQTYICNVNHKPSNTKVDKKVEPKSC
light 1: DIQMTQSPSTLSASVGDRVTITCRASQSISSWLAWYQQKPGKAPKLLIYDASSLESGVPSRFSGSGSGTEFTLTISSLQPDDFATYYCQQYSSQPYTFGQGTKVEIKRTVAAPSVFIFPPSDRKLKSGTASVVCLLNNFYPREAKVQWKVDNALQSGNSQESVTEQDSKDSTYSLSSTLTLSKADYEKHKVYACEVTHQGLSSPVTKSFNRGEC
light 2: QVQLVQSGAEVKKPGSSVKVSCKASGGTFSSYAISWVRQAPGQGLEWMGGIIPIFGTANYAQKFQGRVTITADESTSTAYMELSSLRSEDTAVYYCARGLLWNYWGQGTLVTVSSASVAAPSVFIFPPSDEQLKSGTASVVCLLNNFYPREAKVQWKVDNALQSGNSQESVTEQDSKDSTYSLSSTLTLSKADYEKHKVYACEVTHQGLSSPVTKSFNRGEC
notes: huIgG1 P329G LALA, no knob-into-hole; also called 4+2 huEpCAM; 4 + 2 anti-huOX40, anti-huEpCAM
Question: With B2 as the binder, how does the EC50 (human OX40 [1]) read?
Answer: 0.01 nM

Question: And the EC50 (human OX40 [2])?
Answer: 0.04 nM

B3: monospecific, bivalent anti-human EpCAM IgG (parental bivalent anti-human EpCAM antibody, clone 3-17I, Affitech) (antibody, V domains shown)
VH: QVQLVQSGAEVKKPGSSVKVSCKASGGTFSSYAISWVRQAPGQGLEWMGGIIPIFGTANYAQKFQGRVTITADESTSTAYMELSSLRSEDTAVYYCARGLLWNYWGQGTLVTVSS
VL: EIVMTQSPATLSVSPGERATLSCRASQSVSSNLAWYQQKPGQAPRLIIYGASTTASGIPARFSASGSGTDFTLTISSLQSEDFAVYYCQQYNNWPPAYTFGQGTKLEIK
notes: IgG; it was detected with an anti-human IgG secondary; also called huEpCAM IgG; 3-171
Question: Which EC50 (human EpCAM) does the source give for B3 here?
Answer: 3.11 nM
